Measurements from US9937235B2, “Lipidated peptides as anti-obesity agents” (USTAV ORGANICKE CHEMIE A BIOCHEMIE AKADEMIE VED CR, V.V.I, priority 2012, dated 2018).
Read-outs that look alike come from different tables or passages of the source. Where a SMILES comes first, the peptide text is derived from it. Where no end group is shown, it is not given here. [ ]: non-standard residue; d: D form. The star is where a group is joined. Palmitoyl = CCCCCCCCCCCCCCCC(=O)*; Tridecanoyl = CCCCCCCCCCCCC(=O)*; Myristoyl = CCCCCCCCCCCCCC(=O)*; Nle = CCCC[C@H](N)C(=O)O; Dap = NC[C@H](N)C(=O)O

T1: rat PrRP receptor (GPR10) in RC-4B/C cells (Rattus norvegicus, UniProt Q64121)
T1 construct: host or cells: RC-4B/C rat pituitary cell line
T1 sequence (Q64121 1-370): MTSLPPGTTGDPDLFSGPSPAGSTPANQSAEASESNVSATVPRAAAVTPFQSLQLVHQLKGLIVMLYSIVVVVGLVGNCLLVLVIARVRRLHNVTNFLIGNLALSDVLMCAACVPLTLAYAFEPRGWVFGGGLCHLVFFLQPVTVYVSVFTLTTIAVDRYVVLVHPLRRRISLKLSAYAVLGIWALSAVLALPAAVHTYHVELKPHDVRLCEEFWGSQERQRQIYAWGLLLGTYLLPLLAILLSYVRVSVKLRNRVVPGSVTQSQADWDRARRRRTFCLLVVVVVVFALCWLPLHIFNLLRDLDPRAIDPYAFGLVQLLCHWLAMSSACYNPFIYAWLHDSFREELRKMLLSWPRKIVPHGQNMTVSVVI

T2: rat PrRP receptor in RC-4B/C cells (rat, UniProt Q64121 1-370)
T2 construct: whole, on cells; also called the rat receptor; GPR10
T2 sequence (looked up): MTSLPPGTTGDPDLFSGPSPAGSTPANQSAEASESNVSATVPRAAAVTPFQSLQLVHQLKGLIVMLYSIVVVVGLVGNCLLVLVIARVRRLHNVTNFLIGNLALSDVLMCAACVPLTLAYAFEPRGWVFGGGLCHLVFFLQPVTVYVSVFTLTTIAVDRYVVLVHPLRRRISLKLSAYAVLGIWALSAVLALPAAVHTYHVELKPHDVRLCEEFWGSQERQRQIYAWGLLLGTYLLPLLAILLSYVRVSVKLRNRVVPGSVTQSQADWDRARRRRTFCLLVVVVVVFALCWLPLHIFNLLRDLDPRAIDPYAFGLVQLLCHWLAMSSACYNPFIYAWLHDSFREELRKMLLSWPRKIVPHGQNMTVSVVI

B1: analog no. 5 (peptide)
peptide: [Dap](Myristoyl)RAHQHS[Nle]ETRTPDINPAWYTGRGIRPVGRF-NH2
modifications: N-terminus assumed
SMILES: CCCCCCCCCCCCCC(=O)NC[C@H](N)C(=O)N[C@@H](CCCNC(=N)N)C(=O)N[C@@H](C)C(=O)N[C@@H](Cc1c[nH]cn1)C(=O)N[C@@H](CCC(N)=O)C(=O)N[C@@H](Cc1c[nH]cn1)C(=O)N[C@@H](CO)C(=O)N[C@@H](CCCC)C(=O)N[C@@H](CCC(=O)O)C(=O)N[C@H](C(=O)N[C@@H](CCCNC(=N)N)C(=O)N[C@H](C(=O)N1CCC[C@H]1C(=O)N[C@@H](CC(=O)O)C(=O)N[C@H](C(=O)N[C@@H](CC(N)=O)C(=O)N1CCC[C@H]1C(=O)N[C@@H](C)C(=O)N[C@@H](Cc1c[nH]c2ccccc12)C(=O)N[C@@H](Cc1ccc(O)cc1)C(=O)N[C@H](C(=O)NCC(=O)N[C@@H](CCCNC(=N)N)C(=O)NCC(=O)N[C@H](C(=O)N[C@@H](CCCNC(=N)N)C(=O)N1CCC[C@H]1C(=O)N[C@H](C(=O)NCC(=O)N[C@@H](CCCNC(=N)N)C(=O)N[C@@H](Cc1ccccc1)C(N)=O)C(C)C)[C@@H](C)CC)[C@@H](C)O)[C@@H](C)CC)[C@@H](C)O)[C@@H](C)O
notes: analog of rat PrRP31; also called [Dpr(myr)^1]PrRP31; myristoylated analog [Dpr^1]PrRP31 (No. 5)
B2: Rat PrRP31 (peptide)
peptide: SRAHQHSMETRTPDINPAWYTGRGIRPVGRF-NH2
notes: also called prolactin-releasing peptide
B3: analog no. 4 (peptide)
peptide: [Dap](Tridecanoyl)RAHQHS[Nle]ETRTPDINPAWYTGRGIRPVGRF-NH2
modifications: N-terminus assumed
SMILES: CCCCCCCCCCCCC(=O)NC[C@H](N)C(=O)N[C@@H](CCCNC(=N)N)C(=O)N[C@@H](C)C(=O)N[C@@H](Cc1c[nH]cn1)C(=O)N[C@@H](CCC(N)=O)C(=O)N[C@@H](Cc1c[nH]cn1)C(=O)N[C@@H](CO)C(=O)N[C@@H](CCCC)C(=O)N[C@@H](CCC(=O)O)C(=O)N[C@H](C(=O)N[C@@H](CCCNC(=N)N)C(=O)N[C@H](C(=O)N1CCC[C@H]1C(=O)N[C@@H](CC(=O)O)C(=O)N[C@H](C(=O)N[C@@H](CC(N)=O)C(=O)N1CCC[C@H]1C(=O)N[C@@H](C)C(=O)N[C@@H](Cc1c[nH]c2ccccc12)C(=O)N[C@@H](Cc1ccc(O)cc1)C(=O)N[C@H](C(=O)NCC(=O)N[C@@H](CCCNC(=N)N)C(=O)NCC(=O)N[C@H](C(=O)N[C@@H](CCCNC(=N)N)C(=O)N1CCC[C@H]1C(=O)N[C@H](C(=O)NCC(=O)N[C@@H](CCCNC(=N)N)C(=O)N[C@@H](Cc1ccccc1)C(N)=O)C(C)C)[C@@H](C)CC)[C@@H](C)O)[C@@H](C)CC)[C@@H](C)O)[C@@H](C)O
notes: analog of rat PrRP31
B4: analog no. 6 (peptide)
peptide: [Dap](Palmitoyl)RAHQHS[Nle]ETRTPDINPAWYTGRGIRPVGRF-NH2
modifications: N-terminus assumed
SMILES: CCCCCCCCCCCCCCCC(=O)NC[C@H](N)C(=O)N[C@@H](CCCNC(=N)N)C(=O)N[C@@H](C)C(=O)N[C@@H](Cc1c[nH]cn1)C(=O)N[C@@H](CCC(N)=O)C(=O)N[C@@H](Cc1c[nH]cn1)C(=O)N[C@@H](CO)C(=O)N[C@@H](CCCC)C(=O)N[C@@H](CCC(=O)O)C(=O)N[C@H](C(=O)N[C@@H](CCCNC(=N)N)C(=O)N[C@H](C(=O)N1CCC[C@H]1C(=O)N[C@@H](CC(=O)O)C(=O)N[C@H](C(=O)N[C@@H](CC(N)=O)C(=O)N1CCC[C@H]1C(=O)N[C@@H](C)C(=O)N[C@@H](Cc1c[nH]c2ccccc12)C(=O)N[C@@H](Cc1ccc(O)cc1)C(=O)N[C@H](C(=O)NCC(=O)N[C@@H](CCCNC(=N)N)C(=O)NCC(=O)N[C@H](C(=O)N[C@@H](CCCNC(=N)N)C(=O)N1CCC[C@H]1C(=O)N[C@H](C(=O)NCC(=O)N[C@@H](CCCNC(=N)N)C(=O)N[C@@H](Cc1ccccc1)C(N)=O)C(C)C)[C@@H](C)CC)[C@@H](C)O)[C@@H](C)CC)[C@@H](C)O)[C@@H](C)O
notes: analog of rat PrRP31; also called [Dpr(palm)^1]PrRP31
B5: Rat PrRP20 (peptide)
peptide: TPDINPAWYTGRGIRPVGRF-NH2
B6: analog no. 10 (peptide)
peptide: Myristoyl-TPDINPAWYTGRGIRPVGRF-NH2
SMILES: CCCCCCCCCCCCCC(=O)N[C@H](C(=O)N1CCC[C@H]1C(=O)N[C@@H](CC(=O)O)C(=O)N[C@H](C(=O)N[C@@H](CC(N)=O)C(=O)N1CCC[C@H]1C(=O)N[C@@H](C)C(=O)N[C@@H](Cc1c[nH]c2ccccc12)C(=O)N[C@@H](Cc1ccc(O)cc1)C(=O)N[C@H](C(=O)NCC(=O)N[C@@H](CCCNC(=N)N)C(=O)NCC(=O)N[C@H](C(=O)N[C@@H](CCCNC(=N)N)C(=O)N1CCC[C@H]1C(=O)N[C@H](C(=O)NCC(=O)N[C@@H](CCCNC(=N)N)C(=O)N[C@@H](Cc1ccccc1)C(N)=O)C(C)C)[C@@H](C)CC)[C@@H](C)O)[C@@H](C)CC)[C@@H](C)O
notes: myristoylated rat PrRP20

Columns and labels:
[1] = biological target: T1, rat PrRP receptor (GPR10) in RC-4B/C cells; assay: Competitive binding to rat pituitary RC-4B/C cells
Procedure: Competitive binding experiments were performed according to Motulsky and Neubig (Motulsky, A., et al., “Analyzing radioligand binding data,” Curr Protoc Neurosci, Chapter 7, Unit 7.5, 2002). The rat pituitary cell line RC-4B/C (ATCC, Manassas, USA) was grown on 24-well plates which had their bottom coated with polyethyleneimine. The cells were grown to the optimal density of 300-450 thousand per well. […] Plates were incubated for 60 minutes at room temperature. After incubation, the cells were solubilized in 0.1 mol/l solution of NaOH and the radioactivity bound to the cells was counted using a γ-counter. The experiments were performed in duplicate and repeated at least three times. For evaluation of competitive binding experiments, the program Graph Pad Prism Software (San Diego, Calif., USA) was used. A method of nonlinear regression assuming one-site binding was used.

[2] = system: fasted C57BL/6 mice; assay: Food intake in fasted mice after SC administration; type: in vivo, mouse; details: fasted C57BL/6 mice, 5 mg/kg SC, 45 min
How it was run: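 Male C57BL/6 mice, food-deprived 17 h, received saline, PrRP or lipidated analogs either SC at 1-10 mg/kg or ICV into the third ventricle at 4 nmol/mouse.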

[3] = biological target: T2, rat PrRP receptor in RC-4B/C cells; assay: competition with 125I-rat PrRP31 on RC-4B/C cells
Procedure: (§1) The rat pituitary cell line RC-4B/C (ATCC, Manassas, USA) was grown on 24-well plates which had their bottom coated with polyethyleneimine. The cells were grown to the optimal density of 300-450 thousand per well.
(§2) Plates were incubated for 60 minutes at room temperature. After incubation, the cells were solubilized in 0.1 mol/l solution of NaOH and the radioactivity bound to the cells was counted using a γ-counter. The experiments were performed in duplicate and repeated at least three times.

[4] = biological target: T2, rat PrRP receptor in RC-4B/C cells; assay: competition with 125I-rat PrRP31 on RC-4B/C cells; Ki by Cheng-Prusoff
Procedure: as §1, §2
For evaluation of competitive binding experiments, the program Graph Pad Prism Software (San Diego, Calif., USA) was used. A method of nonlinear regression assuming one-site binding was used.

[5] = rat RC-4B/C cells, Table 5, read-out: C-4B/C cells ^25I-rat PrRP31 Ki

| Molecule | Ki [1, 5] | Food intake in mice (5 mg/kg SC) % saline-treated group (45 min) [2] | Ki ([1]; ^125I-rat PrRP31, RC-4B/C cells, Table 3, read-out: ^125I-rat PrRP31 Ki) | % of PrRP31 binding [3] | Ki [4] |
| --- | --- | --- | --- | --- | --- |
| CCCCCCCCCCCCCCCC(=O)N[C@@H](CO)C(=O)N[C@@H](CCCNC(=N)N)C(=O)N[C@@H](C)C(=O)N[C@@H](Cc1c[nH]cn1)C(=O)N[C@@H](CCC(N)=O)C(=O)N[C@@H](Cc1c[nH]cn1)C(=O)N[C@@H](CO)C(=O)N[C@@H](CCCC)C(=O)N[C@@H](CCC(=O)O)C(=O)N[C@H](C(=O)N[C@@H](CCCNC(=N)N)C(=O)N[C@H](C(=O)N1CCC[C@H]1C(=O)N[C@@H](CC(=O)O)C(=O)N[C@H](C(=O)N[C@@H](CC(N)=O)C(=O)N1CCC[C@H]1C(=O)N[C@@H](C)C(=O)N[C@@H](Cc1c[nH]c2ccccc12)C(=O)N[C@@H](Cc1ccc(O)cc1)C(=O)N[C@H](C(=O)NCC(=O)N[C@@H](CCCNC(=N)N)C(=O)NCC(=O)N[C@H](C(=O)N[C@@H](CCCNC(=N)N)C(=O)N1CCC[C@H]1C(=O)N[C@H](C(=O)NCC(=O)N[C@@H](CCCNC(=N)N)C(=O)N[C@@H](Cc1ccccc1)C(N)=O)C(C)C)[C@@H](C)CC)[C@@H](C)O)[C@@H](C)CC)[C@@H](C)O)[C@@H](C)O [Analog 19] (Palmitoyl-SRAHQHS[Nle]ETRTPDINPAWYTGRGIRPVGRF-NH2) | 0.51 ± 0.16 nM | 2% |  |  |  |
| CCCCCCCCCCCCCC(=O)N[C@H](C(=O)N1CCC[C@H]1C(=O)N[C@@H](CC(=O)O)C(=O)N[C@H](C(=O)N[C@@H](CC(N)=O)C(=O)N1CCC[C@H]1C(=O)N[C@@H](C)C(=O)N[C@@H](Cc1c[nH]c2ccccc12)C(=O)N[C@@H](Cc1ccc(O)cc1)C(=O)N[C@@H](C)C(=O)N[C@@H](CO)C(=O)N[C@@H](CCCNC(=N)N)C(=O)NCC(=O)N[C@H](C(=O)N[C@@H](CCCNC(=N)N)C(=O)N1CCC[C@H]1C(=O)N[C@H](C(=O)NCC(=O)N[C@@H](CCCNC(=N)N)C(=O)N[C@@H](Cc1ccccc1)C(N)=O)C(C)C)[C@@H](C)CC)[C@@H](C)CC)[C@@H](C)O [Analog 13] (Myristoyl-TPDINPAWYASRGIRPVGRF-NH2) |  |  | 0.41 ± 0.13 nM |  |  |
| CCCCCCCCCCCCCCCC(=O)N[C@@H](CO)C(=O)N[C@@H](CCCNC(=N)N)C(=O)N[C@@H](C)C(=O)N[C@@H](Cc1c[nH]cn1)C(=O)N[C@@H](CCC(N)=O)C(=O)N[C@@H](Cc1c[nH]cn1)C(=O)N[C@@H](CO)C(=O)N[C@@H](CCSC)C(=O)N[C@@H](CCC(=O)O)C(=O)N[C@H](C(=O)N[C@@H](CCCNC(=N)N)C(=O)N[C@H](C(=O)N1CCC[C@H]1C(=O)N[C@@H](CC(=O)O)C(=O)N[C@H](C(=O)N[C@@H](CC(N)=O)C(=O)N1CCC[C@H]1C(=O)N[C@@H](C)C(=O)N[C@@H](Cc1c[nH]c2ccccc12)C(=O)N[C@@H](Cc1ccc(O)cc1)C(=O)N[C@H](C(=O)NCC(=O)N[C@@H](CCCNC(=N)N)C(=O)NCC(=O)N[C@H](C(=O)N[C@@H](CCCNC(=N)N)C(=O)N1CCC[C@H]1C(=O)N[C@H](C(=O)NCC(=O)N[C@@H](CCCNC(=N)N)C(=O)N[C@@H](Cc1ccccc1)C(N)=O)C(C)C)[C@@H](C)CC)[C@@H](C)O)[C@@H](C)CC)[C@@H](C)O)[C@@H](C)O [Analog 61] (Palmitoyl-SRAHQHSMETRTPDINPAWYTGRGIRPVGRF-NH2) | 0.41 ± 0.12 nM | 2% |  |  |  |
| B1 |  |  |  | 601% | 0.82 nM |
| B2 |  |  |  | 100% | 4.93 nM |
| B3 |  |  |  | 967% | 0.51 nM |
| B4 |  |  |  | 1070% | 0.46 nM |
| B5 |  |  |  | 143% | 3.44 nM |
| B6 |  |  |  | 632% | 0.78 nM |
